Laboratory results published in US20220064329.

Target: mAb0077(OA)
Sequence (chain, as listed by the source, chain 1 of 3): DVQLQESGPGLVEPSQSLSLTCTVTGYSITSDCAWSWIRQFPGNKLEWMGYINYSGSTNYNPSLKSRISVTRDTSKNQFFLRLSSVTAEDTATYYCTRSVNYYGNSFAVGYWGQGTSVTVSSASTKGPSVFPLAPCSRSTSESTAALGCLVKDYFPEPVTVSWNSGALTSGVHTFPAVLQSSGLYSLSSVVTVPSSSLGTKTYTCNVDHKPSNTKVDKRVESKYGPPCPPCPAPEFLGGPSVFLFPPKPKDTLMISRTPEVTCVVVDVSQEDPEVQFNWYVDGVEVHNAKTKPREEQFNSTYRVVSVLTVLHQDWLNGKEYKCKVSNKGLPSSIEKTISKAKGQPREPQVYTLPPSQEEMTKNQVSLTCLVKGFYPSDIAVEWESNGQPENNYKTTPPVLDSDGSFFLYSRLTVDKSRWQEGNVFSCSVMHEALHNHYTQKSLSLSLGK
Sequence (chain, as listed by the source, chain 2 of 3): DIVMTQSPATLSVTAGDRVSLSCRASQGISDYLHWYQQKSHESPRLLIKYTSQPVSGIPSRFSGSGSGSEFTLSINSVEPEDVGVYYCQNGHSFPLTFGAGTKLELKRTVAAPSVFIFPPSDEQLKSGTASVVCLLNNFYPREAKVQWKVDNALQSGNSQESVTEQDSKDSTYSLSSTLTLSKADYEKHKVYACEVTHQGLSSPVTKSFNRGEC
Sequence (chain, as listed by the source, chain 3 of 3): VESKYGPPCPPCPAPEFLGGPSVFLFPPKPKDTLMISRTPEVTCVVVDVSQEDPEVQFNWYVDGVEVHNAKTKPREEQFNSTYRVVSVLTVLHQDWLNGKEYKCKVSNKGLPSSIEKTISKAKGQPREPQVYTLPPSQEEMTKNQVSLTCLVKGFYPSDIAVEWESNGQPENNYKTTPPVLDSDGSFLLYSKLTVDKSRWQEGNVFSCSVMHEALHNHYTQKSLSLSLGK

B1: recombinant human activated Factor VII (FVIIa) (protein)
chain 1: ANAFLEELRPGSLERECKEEQCSFEEAREIFKDAERTKLFWISYSDGDQCASSPCQNGGSCKDQLQSYICFCLPAFEGRNCETHKDDQLICVNENGGCEQYCSDHTGTKRSCRCHEGYSLLADGVSCTPTVEYPCGKIPILEKRNASKPQGR
chain 2: IVGGKVCPKGECPWQVLLLVNGAQLCGGTLINTIWVVSAAHCFDKIKNWRNLIAVLGEHDLSEHDGDEQSRRVAQVIIPSTYVPGTTNHDIALLRLHQPVVLTDHVVPLCLPERTFSERTLAFVRFSLVSGWGQLLDRGATALELMVLNVPRLMTQDCLQQSRKVGDSPNITEYMFCAGYSDGSKDSCKGDSGGPHATHYRGTWYLTGIVSWGQGCATVGHFGVYTRVSQYIEWLQKLMRSEPRPGVLLRAPFP
Q: With B1 as the protein, how does the Km of FX activation by FVIIa/PS:PC with 200 nM antibody read?
A: The Km of FX activation by FVIIa/PS:PC with 200 nM antibody was 0.089 µM.

Q: And the Km of FX activation by TF-FVIIa with 200 nM antibody?
A: Its Km of FX activation by TF-FVIIa with 200 nM antibody is 0.0039 µM.

Q: And the kcat of FX activation by FVIIa/PS:PC with 200 nM antibody?
A: Its kcat of FX activation by FVIIa/PS:PC with 200 nM antibody is 0.00026 s⁻¹.
